According to the supplement of paper PMC11865577:

Experiments:
Experiment in all cases: pull-down binding Z-score (relative to library population); higher = stronger binding
[1] = tested on: G-clamp-N3 (biotin conjugate); settings: RNA library: Library-1 (pre-miRNA loops + repeats)
Procedure, shortened: (§1)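 Heat-folded RNA library (1 μg, Cy5 or Cy3 end label, phosphate/NaCl/KCl buffer) was captured for 60 min at 25 °C on streptavidin beads displaying 100 pmol of biotin-conjugated small molecule, then washed three times. The bound fraction, eluted in hot SDS, was hybridised to a DNA barcode microarray at 55.5 °C for 20 h. Z-scores for binding were taken against the library mean and standard deviation after beads-only subtraction and trimmed averaging of replicate barcoded probes.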

[2] = tested on: TO-3-N3 (biotin conjugate); settings: RNA library: Library-2
Procedure, shortened: as §1

[3] = tested on: TO-3-N3-2 (biotin conjugate); settings: RNA library: Library-2
Procedure, shortened: as §1

[4] = tested on: TO-N3 (biotin conjugate); settings: RNA library: Library-2
Procedure, shortened: as §1

[5] = tested on: TO-N3-2 (biotin conjugate); settings: RNA library: Library-2
Procedure, shortened: as §1

Row | Sequence | pull-down binding Z-score [1] | pull-down binding Z-score [2] | pull-down binding Z-score [3] | pull-down binding Z-score [4] | pull-down binding Z-score [5]
1 | GCCUCCUGGAUCUCUAGGUCUCAGGGC [hsa-mir-6744] | -0.189 | -0.282 | -0.302 | -0.272 | 0.118
2 | GCCUCGCUUCCUGCCGGCGCGGC [hsa-mir-1538] | -0.287 | -0.255 | -0.601 | -0.389 | 0.147
3 | GCCUCUCUGAGCAUGCAUUCCUGAGACUC [hsa-mir-5695] | -1.38 | 0.286 | 0.0721 | 0.481 | 0.547
4 | GCCUCUUCUCCAUGAGAGGC [hsa-mir-885] | 1.74 | -0.689 | -0.322 | -1.07 | -1.37
5 | GCCUGCCCUGAGUCCCCCAGCAGGU [hsa-mir-3907] | -0.55 | 1.45 | 0.663 | 1.46 | 0.912
6 | GCCUGCGGGCAGGAAGCGGA [hsa-mir-3928] | -0.0318 | 1.57 | 1.34 | 1.87 | 2.23
7 | GCCUGUGUAGACGGGGACCUGCCCUGCAUGGGCACCCCCUCACUGGC [hsa-mir-6762] | -0.617 | 0.332 | 0.322 | 0.173 | 0.347
8 | GCCUUGUGGCAUGGAGUUCAAGC [hsa-mir-107] | 0.5 | 0.468 | 0.0909 | 0.851 | 1.54
9 | GCCUUGUUGCAUAUGGAUCAAGC [hsa-mir-103a-1] | 0.266 | -0.346 | -0.376 | -0.178 | 0.388
10 | GCCUUUCAACAUAAUGGC [hsa-mir-548w] | 1.21 | -0.0045 | -0.214 | -0.352 | -0.827
11 | GCGCGGGAAAGUUCGGGAACGCGCG [hsa-mir-4479] | 0.488 | 0.386 | 0.246 | 0.854 | 1.72
12 | GCGGCCGCGCUGGCCGCU [hsa-mir-3665] | 1.02 | -0.0786 | -0.548 | -0.0622 | 0.524
13 | GCGGCUGUUAAUGAUUUUAACAGUUGC [hsa-mir-449c] | 0.888 | -0.84 | -0.119 | -1.14 | -1.2
14 | GCGGGAGCCAGGCCGC [hsa-mir-3185] | 3.26 | -0.123 | 0.0586 | -0.0208 | 0.896
15 | GCGGGGAACGAGGCCGUCGGCCAUUUUGUG [hsa-mir-632] | 1.04 | 1.2 | 0.912 | 1.59 | 1.58
16 | GCGGGGGUGGGGGCCUCGCCCUGCUUGGGCCCUCCCUGAC [hsa-mir-6821] | 0.419 | 2.12 | 1.75 | 2.47 | 2.31
17 | GCGGGGUGUGGUGGGGCUGGGGCUGGCCCCCUCCUCACACCUC [hsa-mir-6800] | 1.21 | 4.74 | 5.35 | 4.29 | 3.96
18 | GCGGUUUUUGCCAUUACUUUUCAUUUUUACCAUUAAAAGUAAUGGCAAAAAGCAU [hsa-mir-548q] | -0.112 | -0.964 | 0.225 | -1.09 | -0.56
19 | GCGGUUUUUGCUAUUGGUUUUAAUGGC [hsa-mir-548au] | -0.139 | -0.185 | -0.189 | -0.205 | -0.183

Row | Sequence | pull-down binding Z-score [1] | pull-down binding Z-score [2] | pull-down binding Z-score [3] | pull-down binding Z-score [4] | pull-down binding Z-score [5]
20 | GCGUCACGUGCACCCAAGUGACGC [hsa-mir-6786] | -0.196 | 0.576 | 0.171 | 0.688 | 0.796
21 | GCGUCGCUUCUCCCUAAUGUUGCC [hsa-mir-6781] | -0.106 | -0.385 | 0.089 | -0.068 | 0.502
22 | GCUAACUGUGACCUUAGC [hsa-mir-4729] | -0.373 | 0.00513 | -0.181 | -0.187 | -0.478
23 | GCUACUGUCUGCACCUGUCACUAGCAGU [hsa-mir-130a] | -1.49 | -0.279 | -0.0477 | 1.12 | 1.58
24 | GCUAGUGCUGGCUCAAUGCAAUGC [hsa-mir-502] | -0.151 | -0.322 | -0.0546 | -0.0527 | 0.637
25 | GCUCAAGCCACAGCAGGGUGUUUAGCGCUCUUCAGUGGCUCCAG [hsa-mir-1203] | -1.23 | -0.00832 | -0.102 | 0.563 | 1.14
26 | GCUCCCAACCAACCACUUCCACAUGUUUUGCUGGU [hsa-mir-4451] | -1.34 | 0.136 | 0.239 | 0.244 | 0.308
27 | GCUCUAAUAAUUUAUUCUAAUAAUAAUUUAGAUC [hsa-mir-7976] | -0.269 | -0.976 | -0.379 | -1.19 | -1.31
28 | GCUCUGGGGAUUUGGUCUCACAGC [hsa-mir-3940] | 0.507 | -0.54 | -0.38 | -0.497 | -0.339
29 | GCUGAAACACAGUUGGUUUGUGUACACUGGC [hsa-mir-24-2] | 0.212 | -0.415 | -0.521 | -0.193 | -0.00258
30 | GCUGAACCCCUGCCCCUGGAGCCCCCAGCAGGGCCCUC [hsa-mir-7162] | -1.32 | 0.665 | 0.612 | 1.34 | 1.85
31 | GCUGAGCCCUUUGAUAAGGGGGAGGUU [hsa-mir-8080] | -0.454 | 0.21 | -0.219 | 0.361 | 0.545
32 | GCUGAGGUUGCGUUGACGCUCGC [hsa-mir-1292] | 0.447 | 0.0445 | -0.0926 | 0.384 | 1.17
33 | GCUGCACUGUCUCCGUCUGCGG [hsa-mir-4519] | -0.081 | -0.24 | 0.0588 | 0.595 | 1.43
34 | GCUGCAGAUCUUUGUCUAAGCAGC [hsa-mir-4498] | -0.879 | -0.346 | -0.207 | -0.555 | -0.274
35 | GCUGCAGGCAAAGCUGGGG [hsa-mir-711] | -0.426 | 0.431 | 0.123 | 0.901 | 1.07
36 | GCUGCCAGGAAAUCCCUAUUUCAUAUAAGAGGGGGCUGGCUGGUUGC [hsa-mir-448] | 1.08 | 0.185 | 0.236 | 0.447 | 0.355
37 | GCUGCCAUCUCCCACUGGCUGC [hsa-mir-4736] | -0.492 | -0.569 | -0.495 | -0.536 | 0.0852
